Test results from article PMC9411612, “Single residue modulators of amyloid formation in the N-terminal P1-region of α-synuclein” (Nature Communications, 2022).

B1: P1-peptide (Ac-KTKE-GVLYVGS-KTKE-NH2) (peptide)
peptide: Ac-KTKEGVLYVGSKTKE-NH2
notes: also called peptide-P1; peptide P1; source: synthetic peptide, bought: Severn Biotech Ltd
B2: MTSL-labelled Cys-P1-peptide (Ac-C-KTKE-GVLYVGS-KTKE-NH2) (peptide)
peptide: CKTKEGVLYVGSKTKE
modifications: N-terminal acetylation; MTSL on the thiol group of the introduced N-terminal cysteine; C-terminal amidation
notes: cysteine introduced at the N-terminus for MTSL labelling; observed mass 1995.07 Da after labelling; also called MTSL-labelled peptide-P1; 14N P1-peptide N-terminally labelled with MTSL; source: synthetic peptide, bought: Severn Biotech Ltd; labelled with MTSL, reverse phase HPLC

Assays:
[1] = target: T1, ΔP1 αSyn (alpha-synuclein with residues 36-42 deleted) (UniProt P37840 1-140, deletion of the seven-residue P1 sequence 36GVLYVGS42 (ΔP1)); experiment: native MS; native nESI-MS; 20 µM protein, αSyn:P1-peptide 1:10, 20 mM ammonium acetate pH 7.5; settings: both partners purified
[2] = target: T2, wild-type alpha-synuclein (WT αSyn) (UniProt P37840 1-140); experiment: as above; settings: both partners purified
[3] = target: T1, ΔP1 αSyn (alpha-synuclein with residues …); experiment: cell-based or functional assay
[4] = target: T1, ΔP1 αSyn (alpha-synuclein with residues …); experiment: NMR paramagnetic relaxation enhancement (PRE); 100 µM 15N-labelled protein with 100 µM 14N MTSL-labelled peptide; diamagnetic spectra after 1 mM ascorbic acid; 20 mM Tris-HCl, pH 7.5, 200 mM NaCl, 15 °C; settings: both partners purified
[5] = target: T2, wild-type alpha-synuclein (WT αSyn); experiment: as above; settings: both partners purified

stoichiometry N [1] | stoichiometry N [2] | t50 of amyloid formation (ThT fluorescence), 100 µM ΔP1 with P1-peptide in 10-fold molar excess, pH 7.5 (aggregation begins within 110 h at equimolar ratio) [3] [h] | binding result [4] | binding result [5] | Binder
1 | 1 | 14.4 | – | – | B1
– | – | – | binds | binds | B2
